# B1: Hairpin Ribozyme (parent)
# chain: GUCCUCUUUCACGUGCGCGUGAAAGAGAGAAGUGAACCAGAGAAACACACGUUGUGGUAUAUUACCUGGUA
# Variants of: B1
# Assay: self-cleavage, relative activity (ratio to wild type); higher = more cleavage; co-transcriptional
row,Variant,self-cleavage
1,GUCCUCUUUCACGUGCGCGUGAAAGAGAGAAGUGACCCAGAGAAACACACGUUGUCGUAUAUUACCUGGUA [A36C G56C],0.186
2,GUCCUCUUUCACGUGCGCGUGAAAGAGAGAAGUGACCCAGAGAAACACACGUUGUAGUAUAUUACCUGGUA [A36C G56A],0.09
3,GUCCUCUUUCACGUGCGCGUGAAAGAGAGAAGUGACCCAGAGAAACACACGUUGUUGUAUAUUACCUGGUA [A36C G56U],0.216
4,GUCCUCUUUCACGUGCGCGUGAAAGAGAGAAGUGAGCCAGAGAAACACACGUUGUGGUAUAUUACCUCGUA [A36G G68C],0.211
5,GUCCUCUUUCACGUGCGCGUGAAAGAGAGAAGUGAGCCAGAGAAAUACACGUUGUGGUAUAUUACCUGGUA [A36G C46U],0.189
6,GUCCUCUUUCACGUGCGCGUGAAAGAGAGAAGUGACCCAGAGAAACACACGUUGUGGUAUAAUACCUGGUA [A36C U62A],0.0722
7,GUCCUCUUUCACGUGCGCGUGAAAGAGAGAAGUGAGCCAGAGAAACACACGUUGUGGUAUAUUACCUGUUA [A36G G69U],0.237
8,GUCCUCUUUCACGUGCGCGUGAAAGAGAGAAGUGAGCCAGAGAAACACACGUUGUGGUAUAUUACCUGAUA [A36G G69A],0.414
9,GUCCUCUUUCACGUGCGCGUGAAAGAGAGAAGUGACCCAGAGAAACACACCUUGUGGUAUAUUACCUGGUA [A36C G51C],0.562
10,GUCCUCUUUCACGUGCGCGUGAAAGAGAGAAGUGACCCAGAGAAACACACGUUGUGGUCUAUUACCUGGUA [A36C A59C],0.0815
11,GUCCUCUUUCACGUGCGCGUGAAAGAGAGAAGUGUACCAGAGAAACACACGUUGUGGGAUAUUACCUGGUA [A35U U58G],0.553
12,GUCCUCUUUCACGUGCGCGUGAAAGAGAGAAGUGUACCAGAGAAACACACGUUGUGGCAUAUUACCUGGUA [A35U U58C],0.798
13,GUCCUCUUUCACGUGCGCGUGAAAGAGAGAAGUGAGCCAGAUAAACACACGUUGUGGUAUAUUACCUGGUA [A36G G42U],0.227
14,GUCCUCUUUCACGUGCGCGUGAAAGAGAGAAGUGAGCCAGAGAAACACACGUUGUGGUAUACUACCUGGUA [A36G U62C],0.328
15,GUCCUCUUUCACGUGCGCGUGAAAGAGAGAAGUGAGCCAUAGAAACACACGUUGUGGUAUAUUACCUGGUA [A36G G40U],0.0848
16,GUCCUCUUUCACGUGCGCGUGAAAGAGAGAAGUGAGCCAAAGAAACACACGUUGUGGUAUAUUACCUGGUA [A36G G40A],0.349
17,GUCCUCUUUCACGUGCGCGUGAAAGAGAGAAGUGACCCAGAGAAACACACGUUGUGGUAUUUUACCUGGUA [A36C A61U],0.162
18,GUCCUCUUUCACGUGCGCGUGAAAGAGAGAAGUGAGCCAGAGAAACACACGUUGUGGUAUAUUAACUGGUA [A36G C65A],0.73
19,GUCCUCUUUCACGUGCGCGUGAAAGAGAGAAGUGACCCCGAGAAACACACGUUGUGGUAUAUUACCUGGUA [A36C A39C],0.216

row,Variant,self-cleavage
1,GUCCUCUUUCACGUGCGCGUGAAAGAGAGAAGUGAGCCAGAGAAACACACGCUGUGGUAUAUUACCUGGUA [A36G U52C],1.24
2,GUCCUCUUUCACGUGCGCGUGAAAGAGAGAAGUGACCCAGAGAAACACACGUUGUGGUAUAUUACCUCGUA [A36C G68C],0.153
3,GUCCUCUUUCACGUGCGCGUGAAAGAGAGAAGUGACCCAGAGAAACACACGUUGUGGUAUAUUACCUAGUA [A36C G68A],0.193
4,GUCCUCUUUCACGUGCGCGUGAAAGAGAGAAGUGACCCAGAGAAACACACGUUGUGGUAUAUUACCUUGUA [A36C G68U],0.213
5,GUCCUCUUUCACGUGCGCGUGAAAGAGAGAAGUGUACCAGAGAAACACACGUGGUGGUAUAUUACCUGGUA [A35U U53G],0.429
6,GUCCUCUUUCACGUGCGCGUGAAAGAGAGAAGUGACCCAGAGAAACACACGUUGUGGUAUAUUACCUGGUG [A36C A71G],0.303
7,GUCCUCUUUCACGUGCGCGUGAAAGAGAGAAGUGACGCAGAGAAACACACGUUGUGGUAUAUUACCUGGUA [A36C C37G],0.215
8,GUCCUCUUUCACGUGCGCGUGAAAGAGAGAAGUGAGCCAGAGAAACACUCGUUGUGGUAUAUUACCUGGUA [A36G A49U],0.204
9,GUCCUCUUUCACGUGCGCGUGAAAGAGAGAAGUGAGCCAGAGAAACACACGUUGUGGUAUAUUACAUGGUA [A36G C66A],0.0924
10,GUCCUCUUUCACGUGCGCGUGAAAGAGAGAAGUGAGUCAGAGAAACACACGUUGUGGUAUAUUACCUGGUA [A36G C37U],0.0788
11,GUCCUCUUUCACGUGCGCGUGAAAGAGAGAAGUGAGCCAGAGAAACACACGUUGUGGUAUAUUACCCGGUA [A36G U67C],0.335
12,GUCCUCUUUCACGUGCGCGUGAAAGAGAGAAGUGUACCAGAGAAACACACGUUGAGGUAUAUUACCUGGUA [A35U U55A],0.129
13,GUCCUCUUUCACGUGCGCGUGAAAGAGAGAAGUGAUCCAGGGAAACACACGUUGUGGUAUAUUACCUGGUA [A36U A41G],0.476
14,GUCCUCUUUCACGUGCGCGUGAAAGAGAGAAGUGACCCAGAGAGACACACGUUGUGGUAUAUUACCUGGUA [A36C A44G],0.157
15,GUCCUCUUUCACGUGCGCGUGAAAGAGAGAAGUGACCCAGAGAUACACACGUUGUGGUAUAUUACCUGGUA [A36C A44U],0.307
16,GUCCUCUUUCACGUGCGCGUGAAAGAGAGAAGUGACCCAGAGACACACACGUUGUGGUAUAUUACCUGGUA [A36C A44C],0.122
17,GUCCUCUUUCACGUGCGCGUGAAAGAGAGAAGUGACCCAGAGAAUCACACGUUGUGGUAUAUUACCUGGUA [A36C A45U],0.124
18,GUCCUCUUUCACGUGCGCGUGAAAGAGAGAAGUGACCCAGGGAAACACACGUUGUGGUAUAUUACCUGGUA [A36C A41G],0.894
19,GUCCUCUUUCACGUGCGCGUGAAAGAGAGAAGUGAGCCCGAGAAACACACGUUGUGGUAUAUUACCUGGUA [A36G A39C],0.218

# From the RNAGym collection of RNA variant scans (doi:10.7554/elife.80360)
